# Values joined by “and” are separate entries in the source; they are usually repeats but may differ in a detail not shown here. Equal entries are not always repeated.
# B1: G133D, Q6VS32 (parent)
# chain: CSSGGGGVAADIGAGLADALTAPLDHKDKSLQSLTLDQSVRKNEKLKLAAQGAEKTYGNGDSLNTGKLKNDKVSRFDFIRQIEVDGQLITLESGEFQIYKQDHSAVVALQIEKINNPDKIDSLINQRSFLVSGLGGEHTAFNQLPSGKAEYHGKAFSSDDPNGRLHYSIDFTKKQGYGRIEHLKTPEQNVELASAELKADEKSHAVILGDTRYGGEEKGTYHLALFGDRAQEIAGSATVKIREKVHEIGIAGKQ
# Variants of: B1
# Details: Neisseria meningitidis; pH 7; Thermal; DSC; PBS; whole UniProt chain shown
row,Variant,unfolding enthalpy (calorimetric)
1,G133D,96.8 kcal/mol and 96.1 kcal/mol
2,L130R G133D,56.3 kcal/mol and 94 kcal/mol

# Source: FireProtDB (doi:10.1073/pnas.1507829112)
